Experimental data from patent US20200069764A1 (Pfizer, published 2020).

Target: EDB+ FN on WI38-VA13 cells (human, UniProt P02751 32-2477)
Test: cell-based or functional assay

Chain of EDB+ FN on WI38-VA13 cells (P02751 32-2477): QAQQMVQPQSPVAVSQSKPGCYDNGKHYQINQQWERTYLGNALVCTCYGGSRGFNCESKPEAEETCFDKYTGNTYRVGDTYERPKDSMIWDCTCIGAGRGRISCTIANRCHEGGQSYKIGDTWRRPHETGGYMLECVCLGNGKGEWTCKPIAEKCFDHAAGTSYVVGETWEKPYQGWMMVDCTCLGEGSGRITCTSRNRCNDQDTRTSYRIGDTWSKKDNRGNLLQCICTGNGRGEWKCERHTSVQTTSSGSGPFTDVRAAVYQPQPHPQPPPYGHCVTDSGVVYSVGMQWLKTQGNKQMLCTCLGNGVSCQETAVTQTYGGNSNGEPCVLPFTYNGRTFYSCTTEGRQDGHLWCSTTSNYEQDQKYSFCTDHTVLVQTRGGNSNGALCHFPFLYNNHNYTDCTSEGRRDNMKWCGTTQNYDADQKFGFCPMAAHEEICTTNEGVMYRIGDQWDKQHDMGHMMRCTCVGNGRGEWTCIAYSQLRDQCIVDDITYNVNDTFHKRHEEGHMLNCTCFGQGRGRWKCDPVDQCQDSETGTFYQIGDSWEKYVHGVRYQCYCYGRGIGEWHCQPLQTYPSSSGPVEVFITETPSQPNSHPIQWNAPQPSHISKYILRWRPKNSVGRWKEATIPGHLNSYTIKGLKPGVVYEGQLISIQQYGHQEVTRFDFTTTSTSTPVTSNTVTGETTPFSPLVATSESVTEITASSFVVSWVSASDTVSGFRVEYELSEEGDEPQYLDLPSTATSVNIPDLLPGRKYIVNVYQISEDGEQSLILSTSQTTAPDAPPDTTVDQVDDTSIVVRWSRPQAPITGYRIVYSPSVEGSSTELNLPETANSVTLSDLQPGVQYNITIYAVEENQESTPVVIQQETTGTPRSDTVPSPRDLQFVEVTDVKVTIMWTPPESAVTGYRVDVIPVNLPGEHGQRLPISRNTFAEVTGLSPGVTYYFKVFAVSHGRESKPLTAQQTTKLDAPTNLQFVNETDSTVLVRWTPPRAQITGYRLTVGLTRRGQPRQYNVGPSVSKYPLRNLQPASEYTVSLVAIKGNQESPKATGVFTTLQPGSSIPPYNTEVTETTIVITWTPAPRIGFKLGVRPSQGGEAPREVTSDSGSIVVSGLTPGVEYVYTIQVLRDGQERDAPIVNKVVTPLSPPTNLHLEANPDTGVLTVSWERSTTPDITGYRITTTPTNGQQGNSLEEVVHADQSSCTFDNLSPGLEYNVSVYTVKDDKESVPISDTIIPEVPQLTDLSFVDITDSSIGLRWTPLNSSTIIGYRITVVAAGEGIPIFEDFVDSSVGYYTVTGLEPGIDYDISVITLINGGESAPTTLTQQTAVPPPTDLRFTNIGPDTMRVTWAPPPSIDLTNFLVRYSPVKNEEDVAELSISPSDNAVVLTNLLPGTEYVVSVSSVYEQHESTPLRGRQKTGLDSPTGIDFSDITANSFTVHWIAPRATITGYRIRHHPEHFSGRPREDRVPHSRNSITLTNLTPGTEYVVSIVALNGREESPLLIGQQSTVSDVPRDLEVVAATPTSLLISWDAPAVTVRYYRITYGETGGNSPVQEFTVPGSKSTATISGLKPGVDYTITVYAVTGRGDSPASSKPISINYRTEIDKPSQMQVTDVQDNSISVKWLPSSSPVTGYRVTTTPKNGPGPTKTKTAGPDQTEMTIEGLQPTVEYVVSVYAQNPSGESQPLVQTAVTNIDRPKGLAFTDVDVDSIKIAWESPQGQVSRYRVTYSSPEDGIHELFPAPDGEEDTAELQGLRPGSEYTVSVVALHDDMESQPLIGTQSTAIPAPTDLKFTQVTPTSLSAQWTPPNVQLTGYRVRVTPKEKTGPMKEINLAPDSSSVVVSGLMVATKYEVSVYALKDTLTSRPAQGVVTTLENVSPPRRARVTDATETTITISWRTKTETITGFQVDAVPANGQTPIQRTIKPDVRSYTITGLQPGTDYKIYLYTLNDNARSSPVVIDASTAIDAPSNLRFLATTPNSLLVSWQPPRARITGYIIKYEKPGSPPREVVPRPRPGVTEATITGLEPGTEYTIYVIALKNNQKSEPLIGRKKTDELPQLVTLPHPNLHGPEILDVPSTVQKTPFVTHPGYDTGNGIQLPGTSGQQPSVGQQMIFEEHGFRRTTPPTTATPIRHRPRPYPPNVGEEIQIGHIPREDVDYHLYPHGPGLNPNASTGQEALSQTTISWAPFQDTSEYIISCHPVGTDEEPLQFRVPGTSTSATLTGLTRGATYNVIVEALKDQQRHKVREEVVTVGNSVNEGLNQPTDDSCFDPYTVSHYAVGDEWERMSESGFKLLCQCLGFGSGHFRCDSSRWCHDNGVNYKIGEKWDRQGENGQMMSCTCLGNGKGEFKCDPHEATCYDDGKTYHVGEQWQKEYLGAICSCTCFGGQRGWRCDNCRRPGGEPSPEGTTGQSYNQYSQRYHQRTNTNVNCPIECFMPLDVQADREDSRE

Binder	Avg IC50 (ng/ml of antibody), in vitro cytotoxicity on WI38-VA13 cells [ng/mL]
EDB-L19-diS-DM1 (antibody, human IgG1, kappa) heavy: not shown light: EIVLTQSPGTLSLSPGERATLSCRASQSVSSSFLAWYQQKPGQAPRLLIYYASSRATGIPDRFSGSGSGTDFTLTISRLEPEDFAVYYCQQTGRIPPTFGQGTKVEIKRTVAAPSVFIFPPSDEQLKSGTASVVCLLNNFYPREAKVQWKVDNALQSGNSQESVTEQDSKDSTYSLSSTLTLSKADYEKHKVYACEVTHQGLSSPVTKSFNRGEC	268
EDB-L19-diS-C2OCO-1569 (antibody, human IgG1, kappa) heavy: not shown light: EIVLTQSPGTLSLSPGERATLSCRASQSVSSSFLAWYQQKPGQAPRLLIYYASSRATGIPDRFSGSGSGTDFTLTISRLEPEDFAVYYCQQTGRIPPTFGQGTKVEIKRTVAAPSVFIFPPSDEQLKSGTASVVCLLNNFYPREAKVQWKVDNALQSGNSQESVTEQDSKDSTYSLSSTLTLSKADYEKHKVYACEVTHQGLSSPVTKSFNRGEC	21
EDB-L19-diS-4574 (antibody, human IgG1, kappa) heavy: not shown light: EIVLTQSPGTLSLSPGERATLSCRASQSVSSSFLAWYQQKPGQAPRLLIYYASSRATGIPDRFSGSGSGTDFTLTISRLEPEDFAVYYCQQTGRIPPTFGQGTKVEIKRTVAAPSVFIFPPSDEQLKSGTASVVCLLNNFYPREAKVQWKVDNALQSGNSQESVTEQDSKDSTYSLSSTLTLSKADYEKHKVYACEVTHQGLSSPVTKSFNRGEC	487
